Laboratory results: the DeepSol protein solubility set

Test: soluble on expression in E. coli; label from the status in PepcDB or PDB records

Soluble on expression in E. coli, not soluble:
MSYPSLFAPLDLGFTTLRNRVLMGSMHTGLEEHPDGAERLAAFYAERARHGVALIVTGGIAPVPSGVVMTGGAMLNDASQLTPHRVVTDAVHAQGGKIALQILHTGRYSYQPHLVAPSAIQAPINRFMPHELTHDEILQLIDDFAHCAQLAREAGYDGVEVMGSEGYLINEFLTRRTNHRDDEWGGDYASRMRFAVEVVRAVRQRVGNDFIIIYRLSMLDLVENGGTFDETVQLAQAIEAAGASLINTGIGWHEARIPTIATPVPRGAFSWVTRKLKGHVSVPLIATNRINDPQVAETILTRGDADMVSMARPFLADAEFLTKAQSGRADEINTCIGCNQACLDRIFIGKVTSCLVNPRACHETHMPITPAIRKKNLAVVGAGPAGLAFAINAASRGHHVTLFDAQSEIGGQFTIARQIPGKEEFYETLRYYRRMIDVTGVTLKLNQRVNAEDLQPFDEAILACGIVPRRPPIDGIDHPKALTYLEVLRDKAPVGKRVAIIGCGGIGFDTAMYLSQHGESTSQNIAEFCTEWGIDTSLQQAGGLRPEGPRLARSPRQIVMLQRKTSKPGEGLGKTTGWIHRATLLARGVKMIPAVSYQKIDDDGLHLLIGGEPQLLEVDHVVICAGQEPRRELADPLRAAGKTVHLIGGCDVAMELDARRAIAQGTRLALEI, MAIINGSQYIERVDNLQSNVWINGERVVGKLSEHPAFAGAIRSQARLYDAQHDPTKQPVLTFRTSTGELAGAAFLRPATKEDLEHRRLAFQEWARLTAGMMGRSPDYMNHRRDGARLGR, MSLSIKMRLGKEFLIDDLKRIEAMRNHLADNIMLMADANEAWRIDQAVIAFKEIEKFNLVWLEEPIKPDDFKGYSYLRSLGKIPIAAGENLHNLAEFNQLIDVNGVDFLEPDLTTCGGITPFMKVAKLAEVNNLPVCSHGVHELHVHLLASCPNASYLEFHAWRIDEFIDSPLKVLNGYTEAPDLPGHGINFDFEKVEKYNVGEGHHHHHH, MRWDIFCHVVDNYGDIGICWRLARQLVTEFDISVRMLVDDLGAMQRICPAIDPRLAVQNIRGVEILHWVEPFADLVPADVVIEAFGCELPPRYIAAMAAASPRFSEPEGKTDRIWINLEYLSAEQWVEGCHGLASPHPSLPLIKYFFFPGFTAATGGLLREAELFTLRDASRTDPAGLWRELGITNPAADEATVSLFCYDSAPISDLLEAWAGSISPVRCLLPEGTASASAASWAGISRLAAGDSIQRGNLTLHVIPFMSQENYDHLLWACDCNFVRGEDSFVRAQWAVRPIVWQIYPQQENVHLIKLEAFLDLYCQELIEPAADAVRAFHRSWNNNEQPDWNCFWKYRDVLQQHAMAWAERLAQIPNLASSLVNFCRNR, MSLRPKMADIARMAGVDISTVSRALAGSPRVTKETRALIDQIVRDTGYVLNEAARNLRDGRANQVLVIVSDIAAPFYSDVVQGIVETLAERGINVLLGVTLRQAKREAKLGKQLLTGVVDGIITVTGSVPKPILNMQGFDRKVVAISRPVPHEGVTCVTIDNYAAAKEVMAHLYAMGHRRIVHIGGPNHSETYRDRSAAYVDFMRDHGLVELTNVRSTDSFNDDAESGFEIMKSMLNDGSRPTAVFCATDELAISAMAAARQANRNIPGDVSFFGFDDLKLAGLMHPPLSTVSVPRFEMGRRGAEELFRQIYKGEMPSTKIVLEHRLVLRDSVAKEGHHHHHH, MVHPAFQVFTDALRQRFGEALDAVVLYGSCLHTSDLTEGIADFYVLVSDYRLAYSGRLLAGLNAWLPPNVFYLEVPAAAGVMRAKYAVISTADFERGARQWFHPYIWARFAQPARLLYARDDQTGKRVHTAQASAVLKFISTTLPVLESGPSDLEMIWASGLMLTYAAELRAEREARARHLVRIDPEIYSRLTAAAMPALIPLLSLQADGRYHIGPITPLKRLSARIHWRLRRWQGRVLSVLRLSKATMTFRDCLDYAAWKIERHTGIKVEITPMLRRHPILWGYKVMWQLLRRGVLRLEHHHHHH, MGSDKIHHHHHHMTRIVESLAEISDLYDAVFCDLWGCVHDGITAFDEAIEALRAFKAKGGTVLLLTNAPRPRASVATQLDDFGIPRDCWDVIATSGDSARAAMLSGAVGTKVWHIGEPEHAPFFAPMDLVADAVDVTRVPLDEAEGIVCTGPFDPKADPSELRPQFLLAKTRRLKLLCANPDIVVDRGESREWCAGALAKLYTEMGGESLYFGKPHPPIYDLARRRLVQMGKPTPDDRILAIGDGIVTDVPGGIGENIDTLFITGGLARDETGTDHQPDPAKLARFLTDAQLEPTYSVGMLR, MSLPGSSNRPLPSSNDEFHYEDIELPSGYRSEGEVVDLLNPKDELEEPLFSEEPLFPVTTSIPTKTAVSKPKIAPTSAAKDVTFSSSIDSDDCSVAYDNSKPVRQYVLMIDAGSTGSRVHVYQFNNCNPSPKLEEEFFKMIEPGLSSFAGDPEGAAASLDPLLDYAMENVPEEYRRCSPIAVKATAGLRLTGESEAKAILKSVRQHLENDYPFPIVKDGVSILEGSMEGIYAWITINYLLGTLGGKATHSTVAVMDLGGASTQLVFEPRFASDGESLVDGDHKYVLDYNGEQYELYQHSHLGYGLKEARKLIHKFVLNNAEALKESLELLGDSTSIIHPCLHLNASLTHPDSKSEASEVVFVGPSLAHLSLQCRGIAEKALYKDKNCPVRPCSFNGVHQPKFTETFTDSPIYLISYFYDRMISLGMPSTFTIEDMKYLANSVCSGPTYWQDAFSLTDALKELKEEPEWCLDLNYMISLLSVGYEIPNNRQLHTAKKIDNKELGWCLGASLSMLSEQNNGWNCNVKEEIEGHHHHHH, IHTMWKGTISFGLVNIPIKLHAATENKDVRLRQLHKECKTPINYLKVCPNCDAEVEPNDIVKAYEYAKNKFVELDEEELASLKKEQEDKAVEIIDFVKLQEIDPIYFDKSYYMSPGDGGGKAYTLLREALAESEKIGVAKIIIRAKEHLAVIRVYKNTLLMETIHFPDEVRAVDQVPNVPE

Soluble on expression in E. coli, soluble:
MGSSHHHHHHSSGLVPRGSDYMFKLLLIGNSSVGKTSFLFRYADDSFTPAFVSTVGIDFKVKTVYRHDKRIKLQIWDTAGQERYRTITTAYYRGAMGFLLMYDIANQESFAAVQDWATQIKTYSWDNAQVILVGNKCDLEDERVVPAEDGRRLADDLGFEFFEASAKENINVKQVFERLVDVICEKMNE, MGHTMPAHTPPAQTAPAAQKAGAQALPVTVQGATVAAVPPSIRDTAAYMTLTNKSDQPIKLVGAATPLATSPMLMTTTHSGGMAGMKMVPWLTIPARGTLTLQRDGDHVMLMGLKRPLKVGETVNITLKATDGRTLNVAATVKKNIEGR, MSSIPQNIKGNNQPDIQKSFVAVHNQPGLYVGQQARFGGKVINVINGKTDTLLEISVLPLDSYAKPDIEANYQGRLLARQSGFLDPVNYRNHFVTILGTIQGEQPGFINKVPYNFLEVNMQGIQVWHLREVVNTTYNLWDYGYGAFWPEPGWGAPYYTNAVSQVTPELVKLEHHHHHH, MEGDTISRMMGSGVQMDGKILQTFEKSFVQVQNILDHNRLLINEINQNHESKIPDNLGRNVGLIRELNNNVRRVAHLYVDLSNNFSKSMEASSEGDSSEGRGNRRIRPA, MSLIQIENQTVSGIPFLHIVKEENRHRAVPLVIFIHGFTSAKEHNLHIAYLLAEKGFRAVLPEALHHGERGEEMAVEELAGHFWDIVLNEIEEIGVLKNHFEKEGLIDGGRIGLAGTSMGGITTLGALTAYDWIKAGVSLMGSPNYVELFQQQIDHIQSQGIEIDVPEEKVQQLMKRLELRDLSLQPEKLQQRPLLFWHGAKDKVVPYAPTRKFYDTIKSHYSEQPERLQFIGDENADHKVPRAAVLKTIEWFETYLEGGSHHHHHH, MRGSHHHHHHGMASMVNTKPEKTEEDSEEVREQKHKTFVEKYEKQIKHFGMLRRWDDSQKYLSDNVHLVCEETANYLVIWCIDLEVEEKCALMEQVAHQTIVMQFILELAKSLKVDPRACFRQFFTKIKTADRQYMEGFNDELEAFKERVRGRAKLRIEKAMKEYEEEERKKRLGPGGLDPVEVYESLPEELQKCFDVKDVQMLQDAISKMDPTDAKYHMQRCIDSGLWVPNSKASEAKEGEEAGPGDPLLEAVPKTGDEKDVSV, MPQLQKEWFDTWFDTPYYHILYSNRDESEAEVFLTNLMNHMAVPKGASILDLPCGKGRHTLFLAEKGYTLTGADLSVASIALAQSHAPAGVTFLVHDLRKPAWNESFDYVLNLFTSFGYFETEAEDRAAFTTLSKALKSGGSLVIDFMNVTRAVNLLKEEETKVMEGIEFQLKRYVKDGYIHKEIRFEADNTPFFFTERVKALTLDDFKEFFTFAGLTLVDTFGSYQLDAYDAAESDRLIMIAKKLEHHHHHH
